Data from patent publication US11857697B2, “Compositions and methods for obtaining 3-dimensional lung-like epithelium and related uses thereof” (THE REGENTS OF THE UNIVERSITY OF MICHIGAN, priority 2017, dated 2024).

What was measured:
[1] = test system: E13.5 mouse distal epithelial lung buds; assay: Isolated E13.5 mouse distal lung bud culture in Matrigel droplet: growth/expansion; format: cell-based
Method: Isolated mouse buds were cultured in 4-6 μl droplets of matrigel, covered with media, and kept at 37 degrees Celsius with 5% Carbon Dioxide. Isolated human fetal lung buds were cultured in 25-50 μl droplets of matrigel, covered with media, and kept at 37 degrees Celsius with 5% Carbon Dioxide.
Mouse buds were dissected from E13.5 embryos. For experiments using Sox9CreER; Rosa^Tomato/Tomato mice, 50 ug/g of tamoxifen was dissolved in corn oil and given by oral gavage on E12.5, 24 hours prior to dissection. Briefly, in sterile environment, whole lungs were placed in 100% dispase (Corning Cat#354235) on ice for 30 minutes. Lungs were then transferred using a 25 uL wiretrol tool (Drummond Scientific Cat#S5-000-2050) to 100% FBS (Corning Cat#35-010-CV) on ice for 15 minutes, and then transferred to a solution of Dulbecco's Modified Eagle Medium: Nutrient Mixture F12 (DMEM/F12, ThermoFisher SKU#12634-010) with 10% FBS and 1× Pennicillin-Streptomycin (ThermoFisher Cat#15140122) on ice. To dissect buds, a single lung or lung lobe was transferred by wiretrol within a droplet of media to a 100 mm sterile petri dish. Under a dissecting microscope, the mesenchyme was carefully removed and epithelial bud tips were torn away from the bronchial tree using tungsten needles (Point Technologies, Inc.). Care was taken to remove the trachea and any connective tissue from dissected lungs. Isolated bud tips were picked up using a p20 pipette and added to an eppendorf tube with cold Matrigel (Corning Ref#354248) on ice. The buds were picked up in a p20 pipette with 4-6 uL of Matrigel and plated on a 24-well tissue culture well (ThermoFisher Cat#142475). The plate was moved to a tissue culture incubator and incubated for 5 minutes at 37 degrees Celsius and 5% CO2 to allow the Matrigel droplet to solidify. 500 uL of media was then added to the dish in a laminar flow hood. Media was changed every 2-3 days.
All mouse bud, human fetal bud, and hPSC-derived human lung organoids were grown in low-serum basal media (basal media) with added growth factors. Basal media consisted of Dulbecco's Modified Eagle Medium: Nutrient Mixture F12 (DMEM/F12, ThermoFisher SKU#12634-010) supplemented with 1× N2 supplement (ThermoFisher Catalog#17502048) and […] B27 supplement (ThermoFisher Catalog#17504044), along with 2 mM Glutamax (ThermoFisher Catalog#35050061), 1× Pennicillin-Streptomycin (ThermoFisher Cat#15140122) and 0.05% Bovine Serum Albumin (BSA; Sigma product# A9647). BSA was weighed and dissolved in DMEM F/12 media before being passed through a SteriFlip 0.22 uM filter (Millipore Item# EW-29969-24) and being added to basal media. Media was stored at 4 degrees Celsius for up to 1 month. On the day of use, basal media was aliquoted and 50 ug/mL Ascorbic acid and 0.4 uM Monothioglycerol was added. […]

E13.5 mouse lung buds = assay: Marker expression (QRT-PCR, immunostaining) in cultured mouse lung buds; format: cell-based
Method: RNA was extracted using the MagMAX-96 Total RNA Isolation System (Life Technologies). RNA quality and concentration was determined on a Nanodrop 2000 spectrophotometer (Thermo Scientific). 100 ng of RNA was used to generate a cDNA library using the SuperScript VILO cDNA master mix kit (Invitrogen) according to manufacturer's instructions. qRT-PCR analysis was conducted using Quantitect SYBR Green Master Mix (Qiagen) on a Step One Plus Real-Time PCR system (Life Technologies). Expression was calculated as a change relative to GAPDH expression using arbitrary units, which were calculated by the following equation: [2^(GAPDH Ct−Gene Ct)]×10,000. A Ct value of 40 or greater was considered not detectable. A list of primer sequences used can be found in Table 1.
Mouse bud, human bud, and HLO tissue was fixed in 4% Paraformaldehyde (Sigma) for 2 hours and rinsed in PBS overnight. Tissue was dehydrated in an alcohol series, with 30 minutes each in 25%, 50%, 75% Methanol:PBS/0.05% Tween-20, followed by 100% Methanol, and then 100% Ethanol. Tissue was processed into paraffin using an automated tissue processor (Leica ASP300). Paraffin blocks were sectioned 5-7 uM thick, and immunohistochemical staining was performed as previously described (Spence et al., 2009). A list of antibodies, antibody information and concentrations used can be found in Table 2. PAS Alcian blue staining was performed using the Newcomer supply Alcian Blue/PAS Stain kit (Newcomer Supply, Inc.) according to manufacturer's instructions.
For whole mount staining tissue was placed in a 1.5 mL eppendorf tube and fixed in 4% paraformaldehyde (Sigma) for 30 minutes. Tissue was then washed with PBS/0.05% Tween-20 (Sigma) for 5 hours, followed by a 2.5-hour incubation with blocking serum (PBS-Tween-20 plus 5% normal donkey serum). Primary antibodies were added to blocking serum and tissue was incubated for at least 24 hours at 4 degrees Celsius. Tissue was then washed for 5 hours with several changes of fresh PBS-Tween-20. Secondary antibodies were added to fresh blocking solution and tissue was incubated for 12-24 hours, followed by 5 hours of PBS-Tween-20 washes. Tissue was then dehydrated to 100% methanol and carefully moved to the center of a single-well EISCO concave microscope slide (ThermoFisher Cat#S99368) using a glass transfer pipette. 5-7 drops of Murray's clear ([…] [Sigma]) were added to the center of the slide, and slides were coverslipped and sealed with clear nail polish.

B1: Recombinant Human Fibroblast Growth Factor 7 (protein, UniProt P21781 32-194, looked up)
Fibroblast growth factor 7: CNDMTPEQMATNVNCSSPERHTRSYDYMEGGDIRVRRLFCRTQWYLRIDKRGKVKGTQEMKNNYNIMEIRTVAVGIVAIKGVESEFYLAMNKEGKLYAKKECNEDCNFKELILENHYNTYASAKWTHNGGEMFVALNQKGIPVRGKKTKKEQKTAHFLPMAIT
notes: Recombinant human growth factor from R&D systems, used at 10 ng/mL unless otherwise noted
Bud growth ([1]; FGF7 1 ng/mL, 3 and 5 days in vitro): very modest growth
Bud growth ([1]; FGF7, all other conditions above 1 ng/mL, 5 days in vitro): robust growth
Growth, expansion and survival of isolated buds ([1]; individual growth factor in basal media, FGF7 10 ng/mL, up to two weeks): promoted growth, expansion a survival of isolated buds for up to two weeks
Scgb1a1 expression after switch to FGF7 only (QRT-PCR) (E13.5 mouse lung buds; 5 days 4F media then 4 days FGF7 only, versus 4F): increased
SOX9 protein and mRNA expression after switch to FGF7 only (E13.5 mouse lung buds; 5 days 4F media then 4 days FGF7 only, versus 4F throughout): reduction of SOX9 protein and mRNA expression
Sox9 expression over time in culture (QRT-PCR) (E13.5 mouse lung buds; FGF7 culture, compared to day 0): significantly reduced after 3 days in culture
Expression of mature alveolar markers Aqp5 and Sftpb over time (QRT-PCR) (E13.5 mouse lung buds; FGF7 culture, length of time in culture): significant increases
